Measured values from patent publication EP1214598B1.
No end group written: not given here.

Biological target: PHF43 (tau fragment generated by GluC digestion of K19, 43 residues) (human)
Experiment: disulfide dimerization via Cys322, after reverse phase HPLC

B1: PHF43 (tau fragment generated by GluC digestion of K19, 43 residues) (peptide)
peptide: NLKHQPGGGKVQIVYKPVDLSKVTSKCGSLGNIHHKPGGGQVE
modifications: also: dimer via Cys322-Cys322 disulfide (without DTT)
  dimer fraction: 100%
